These results are taken from patent US20250163167A1 (SYNTHEKINE, published 2025).

The chains are these.
T1: hIL10Ra-his (Sino Biological, Catalog#10419) (human, UniProt Q13651 22-235)
T1 construct: Bought; also called Sino Biological cat#10419-H08H; not shown: C-terminal poly-His tag
T1 sequence: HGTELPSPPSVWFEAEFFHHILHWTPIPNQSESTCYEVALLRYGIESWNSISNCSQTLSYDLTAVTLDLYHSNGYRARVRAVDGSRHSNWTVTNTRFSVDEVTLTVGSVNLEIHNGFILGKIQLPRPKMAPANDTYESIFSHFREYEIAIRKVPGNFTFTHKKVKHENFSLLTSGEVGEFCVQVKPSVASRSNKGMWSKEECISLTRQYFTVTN

T2: mIL10Rb ECD antigen (mouse, UniProt Q61190 20-220)
T2 construct: Antigen of biopanning and PE-ELISA; also called extracellular domain of mIL10Rb
T2 sequence: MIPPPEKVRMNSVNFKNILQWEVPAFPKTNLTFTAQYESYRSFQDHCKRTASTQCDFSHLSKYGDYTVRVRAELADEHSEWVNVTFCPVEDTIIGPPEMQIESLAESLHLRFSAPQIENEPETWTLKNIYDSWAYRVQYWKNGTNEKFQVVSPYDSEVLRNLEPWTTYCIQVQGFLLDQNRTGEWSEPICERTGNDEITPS

T3: hIL10Ra ECD antigen (human, UniProt Q13651 22-235)
T3 construct: also called ECD of IL10Ra; extracellular domain of hIL10Ra
T3 sequence: T1 sequence

B1: hIL-10Ra_VHH12 Mono-Fc (Fc fusion)
chain: QVQLQESGGGSVQAGGSLRLSCTVSGYTYSSNCMGWFRQAPGKEREGVATIYTGGGNTYYADSVKGRFTISQDNAKNTVYLQMNNLKPEDTAMYYCAAEPLSRVYGGSCPTPTFDYWGQGTQVTVSS
notes: Mono-Fc VHH captured on Protein A; not shown: mono-Fc part
B2: hIL-10Ra_VHH14 Mono-Fc (Fc fusion)
chain: QVQLQESGGGSVQAGGSLRLSCGASGYTYSSYCMGWFRQVPGKEREGVAVIDSDGSTSYADSVKGRFTISKDNGKNTLYLQMNSLKPEDTAMYYCAADLGHYRPPCGVLYLGMDYWGKGTQVTVSS
notes: as for B1
B3: hIL-10Ra_VHH9 Mono-Fc (Fc fusion)
chain: QVQLQESGGGSVQAGGSLRLSCAVSGYAYSTYCMGWFRQAPGKEREGVAAIDSGGSTSYADSVKGRFTISKDNAKNTLYLRMNSLKPEDTAMYYCAAVPPPPDGGSCLFLGPEIKVSKADFRYWGQGTQVTVSS
notes: as for B1
B4: hIL-10Ra_VHH8 Mono-Fc (Fc fusion)
chain: QVQLQESGGGSVQAGGSLRLSCAASGYTYSMYCMGWFRQAPGKEREGVAQINSDGSTSYADSVKGRFTISKDNAKNTLYLQMNSLKPEDTAMYYCAADSRVYGGSWYERLCGPYTYEYNYWGQGTQVTVSS
notes: as for B1
B5: hIL-10Ra_VHH6 Mono-Fc (Fc fusion)
chain: QVQLQESGGGSVQAGGSLRLSCAASRFTYSSYCMGWFRQAPGKEREGVASIDSDGSTSYTDSVKGRFTISKDNAKNTLYLQMNSLKPEDTAMYYCALDLMSTVVPGFCGFLLSAGMDYWGKGTQVTVSS
notes: as for B1
B6: hIL-10Ra_VHH10 Mono-Fc (Fc fusion)
chain: QVQLQESGGGSVQAGGSLRLSCAASRYLYSIDYMAWFRQSPGKEREPVAVIYTASGATFYPDSVKGRFTISQDNAKMTVYLQMNSLKSEDTAMYYCAAVRKTDSYLFDAQSFTYWGQGTQVTVSS
notes: as for B1
B7: hIL-10Ra_VHH17 Mono-Fc (Fc fusion)
chain: QVQLQESGGGSVQAGGSLRLSCAASGYSNCSYDMTWYRQAPGKEREFVSAIHSDGSTRYADSVKGRFFISQDNAKNTVYLQMNSLKPEDTAMYYCKTDPLHCRAHGGSWYSVRANYWGQGTQVTVSS
notes: as for B1
B8: DR1322 (anti mouse mIL10Rb VHH) (VHH)
VHH: QVQLQESGGGSVQAGGALRLSCTASGYTASSICMGWFRQAPGKERERVAVITTAASGTYYADSVNGRFSISQNNAKNTVYLQMNSLKPDDTAMYYCAATRRGGDCLDPLQTPAYNTWGQGTQVTVSS
notes: Phage clone, periplasmic extract
B9: DR1324 (anti mouse mIL10Rb VHH) (VHH)
VHH: QVQLQESGGGSVQAGGSLRLSCATSGYASCSRAMRWYRQAPGKEREFVAYIDGVGSTGYADSVKGRFTISQDNAKYTAYLQMNSLKPEDTAMYYCNRGCRADGSNSLDNYWGQGTQVTVSS
notes: as for B8
B10: DR1327 (anti mouse mIL10Rb VHH) (VHH)
VHH: QVQLQESGGGSVQAGGSLRLSCAASGYTYNGKCMAWFRQAPGKEREVVAGIYTGGSSTYYADSVKGRFTISQDNAKNTVYLQMDSLKPEDTAMYYCATSRSCSDLRRRSIAYWGQGTQVTVSS
notes: as for B8
B11: DR1325 (anti mouse mIL10Rb VHH) (VHH)
VHH: QVQLQESGGGSVQAGGSLRLSCAASGYTYNRRFMGWFRQAPGKEREGLAIIYTPNSSTFYADSVTGRFTISQDSARNTVYLQMNSLKPEDTAMYYCAAARIASMTELSVRDMDYWGKGTQVTVSS
notes: as for B8
B12: DR1323 (anti mouse mIL10Rb VHH) (VHH)
VHH: QVQLQESGGGSVQAGGSLRLSCVASGDTYSRKYIAWVRQVPGKEREGVAVMYTPGSATYYTDTVMGRFTISQDNAKNTVYLQMNSLKPEDTAMYFCAAKASGSMFNFRDYTYWGQGTQVTVSS
notes: as for B8
B13: DR1326 (anti mouse mIL10Rb VHH) (VHH)
VHH: QVQLQESGGGSVQAGGSLRLSCTASRYIALNACMAWIRQAPGSEREVVATIVTDGSRTYYADSVKGRFTISQDNAKNTMYLQMNGLKPEDTAMYYCAADRRCPVSRAPYEYELRYWGQGTQVTVSS
notes: as for B8
B14: hIL10Ra VHH18 (VHH)
VHH: B1 chain with T23A, S30N, G55V, N57S, N85S, D115G
notes: as for B8
B15: hIL10Ra VHH13 (VHH)
VHH: B1 chain with T23A, T28S, Y52H, N57S, N85S, V104L, D115G
notes: as for B8
B16: hIL10Ra VHH7 (VHH)
VHH: B1 chain with T23A, Y29F, S30N, G55V, N57S, N85S, D115G
notes: as for B8
B17: hIL10Ra VHH11 (VHH)
VHH: B2 chain with G26R, V40A
notes: as for B8
B18: hIL10Ra VHH16 (VHH)
VHH: QVQLQESGGGSVQAGGSLRLACAASRYTYSNYCMGWFRQAPGKEREGVATIDSDGNTSYADSVKGRFTISRDNAKNTLYLQMNSLKPGDTAMYYCAADLGHYRPPCGAYYYGMDYWGKGTQVTVSS
notes: as for B8
B19: hIL10Ra VHH15 (VHH)
VHH: B2 chain with S31G, V40A
notes: as for B8
B20: hIL10Ra VHH5 (VHH)
VHH: QVQLQESGGGSIQAGGSLRLSCVASKYLYSTNYMAWFRQSPGKEREAVAAIYTASGATLYSDSNKGRFTISQDNAKMTVYLQMNSLKSEDTAMYYCAAVRKTGSYLFDAQSFTYWGQGTQVTVSS
notes: as for B8

Changes are numbered by the printed parent chain.

For the first assay, the target named is T1, hIL10Ra-his (Sino Biological, …). Description: SPR; ratio of experimental to calculated Rmax. The source says:
(§1) To confirm and evaluate binding affinities of the binding of the IL10Ra sdAbs, a representative example from each clonotype generated was selected for evaluation of binding via SPR. […] Buffer-subtracted sensograms were processed with Biacore T200 Evaluation Software and globally fit with a 1:1 Langmuir binding model (bulk shift set to zero) to extract kinetics and affinity constants (kₐ, kd, KD). RMAX<100 RU indicates surface density compatible with kinetics analysis. Calculated Rₘₐₓ values were generated using the equation: Rₘₐₓ=Load (RU)×valency of ligand×(Molecular weight of analyte/Molecular weight of ligand). Surface activity was defined as the ratio of experimental/calculated Rmax.
(§2) One representative example from each clonotype of IL10a generated in accordance with Examples 1-3 was selected for evaluation of binding via SPR as follows. […] All experiments were conducted in 10 mM Hepes, 150 mM NaCl, 0.05% (v/v) Polysorbate 20 (PS20) and 3 mM EDTA (HBS-EP+ buffer) on a Biacore T200 instrument equipped with a Protein A derivatized sensor chip (Cytiva). Mono-Fc VHH ligands were flowed at 5 μl/min for variable time ranging from 18 to 300 seconds, reaching the capture loads listed in the tables below. Following ligand capture, injections of a 2-fold dilution series of the extracellular domain of the IL2Rb-receptor modified to incorporate a C-terminal poly-His sequence, typically comprising at least five concentrations between 1 μM and 1 nM, were performed in either high performance or single cycle kinetics mode. Surface regeneration was achieved by flowing 10 mM glycine-HCl, pH 1.5 (60 seconds, 50 μL/min).
In the case of B1, the “Surface Activity” value was 73%.

As to B2, the “Surface Activity” value was 51%.

As for B3, the “Surface Activity” value is 66%.

With B4, the “Surface Activity” value is 57%.

Consider B5, for which the “Surface Activity” value is 83%.

On to B6, for which the “Surface Activity” value is 57%.

In the case of B7, the “Surface Activity” value was 35%.

The target in a further assay is T2, mIL10Rb ECD antigen. The experiment in a line: periplasmic extract ELISA (PE-ELISA) of phage clones. (ELISA stands for enzyme-linked immunosorbent assay.)
On to B8, for which the binding result is “binds”.

For the molecule B9, the binding result is given as “binds”.

B10: the binding result was “binds”.

In the case of B11, the binding result is reported as “binds”.

As for B12, the binding result is reported as “binds”.

With B13, the binding result is “binds”.

A further assay concerns the target T3, hIL10Ra ECD antigen. Described as above.
Take B14: the binding result is given as “binds”.

In the case of B15, the binding result was “binds”.

Turning to B16, the binding result is recorded as “binds”.

Regarding B17, the binding result was “binds”.

In the case of B18, the binding result is reported as “binds”.

For B19, the binding result was “binds”.

On to B20, for which the binding result is “binds”.

A further assay deals with T1, hIL10Ra-his (Sino Biological, …). The experiment in a line: SPR Biacore T200; mono-Fc VHH captured on Protein A chip, hIL10Ra-his analyte; 1:1 Langmuir fit.
Description: as §1
as §2, with “[…],” for “injections of a 2-fold dilution series of the extracellular domain of the IL2Rb-receptor modified to incorporate a C-terminal poly-His sequence,”
A general note: SPR reads the build-up and loss of mass on a sensor chip optically.
Broadly, the Kd is the concentration at which binding is half-saturated. A high value points to a looser complex. A word on the koff: it is the first-order rate constant of dissociation. The low end stands for slow dissociation, the high end for fast dissociation. As usually defined, the kon is the second-order rate constant of association. High values mean faster complex formation, low ones slower complex formation. B1 came in with a Kd of 7.7 nM, a koff of 0.00119 s⁻¹ and a kon of 154000 M⁻¹ s⁻¹.

The molecule B2 registered a Kd of 1.4 nM, a koff of 0.000136 s⁻¹ and a kon of 98400 M⁻¹ s⁻¹.

B3 registered an equilibrium dissociation constant (Kd) of 11.6 nM, a koff of 0.00115 s⁻¹ and a kon of 99700 M⁻¹ s⁻¹.

As for B4, binding was put at a Kd of 6.4 nM, the koff was found to be 0.00107 s⁻¹ and the kon came to 168000 M⁻¹ s⁻¹.

On to B5, for which the Kd worked out at 1.8 nM, the koff is 0.00019 s⁻¹ and the association rate constant (kon) amounted to 106000 M⁻¹ s⁻¹.

B6 registered a Kd of 13.4 nM, a koff of 0.00139 s⁻¹ and a kon of 104000 M⁻¹ s⁻¹.

The molecule B7 displayed a Kd of 6 nM, a koff of 0.00197 s⁻¹ and a kon of 327000 M⁻¹ s⁻¹.
